Data taken from the DeepSol protein solubility set.

Test: soluble on expression in E. coli; label from the status in PepcDB or PDB records

**Q.** Which “soluble on expression in E. coli” value does the source give for “GPGSMRYRLRLDAFAPAGSLPCCRILTQVRNLNMNRSVQTRWESDNQVASQKRTDYDFDKEQWSKQMRFASMDCVMDPDITPIKYTSVTGLKKVLRRFMTMRKLIDRRPDFKTDDLKKLFIQLKTISHSRSLEDLKVLQRLTTHGEASRISKEIKTRMNDEFAKKSWKSLKMQEVSNTYQIELDSFQLVNCYMGQMSKEDWLQITYKCEFRERKGDNEEWQSVCEYPVFEVRLGDGVQSPNTHHFIIVGIMRKDGTRYGKDAQDAASLRKQFDRSRKWF” here?
**A.** not soluble

**Q.** Which “soluble on expression in E. coli” value does the source give for “HHSVEAPQVKKRMGKFPFVKASKKESEEISKQLHNALDIELPSESTVWLRDKDVWLFPDALEPMIGELRFSRMGIKIAEAHKNGYRWQHQVATALATGAESNAIELTIEEAREWYMGRDVRPQIIPEGLKTGKGEVLVKYQGAIIGLGKWVSNRIKNGLPRELVRDKNLF” here?
**A.** not soluble

**Q.** For “MISVFDMFKVGIGPSSSHTVGPMKAGKQFIDDLIKRNQFEQTTEIHVDVYGSLSMTGRGHSTDIAIIMGLAGYLPHNVDIDMISGFIEKVKQTALLPINVGQKIVKFDFENNLIFHRTFLKLHENGMTITALDENRTELYRQTYYSIGGGFIVDEAHFGK”, which “soluble on expression in E. coli” value is on record?
**A.** not soluble

**Q.** Which “soluble on expression in E. coli” value does the source give for “GMSEAPHLTFDLDTPGVSTGHLVVPKGADCEALSLPVFSCNRGEGPSLLITGGNHGNELQGPILARRLVKWLPEAQRCGRIIIVPEINPLAVQAWTRNTPIDGKNLNRVFPGRSDGSVSERIADAISRLLLPVVDTVLDLHSFGPTWDCAPSIISHPIADIDQMTKTVSISKAFKLPVTLLWEHNETDGMFDTLVHRQGKTFICTEFGGGVVSAEALTIYEAGVRNGLIALGLVKGKAEYPTFRQQKTGQTLETTSSDQLKSPSPGIFEPRCSVMDEVEQGDVVGVLHPMGSLSAASIDIRAQSKSTVFAIRSAMYVQGNEEVAILARPLAR” here?
**A.** soluble

**Q.** For “LLYIDNIPLVEYNNIIQVEYVVINMLKHGILGLLNYGDMTGYEIMKVFRDSLSFFWTANTSQIYRELNTLKKDGFVTDIVVKQTGKPDKKVFSITESGREELKRWLREYDYGNRNSPLCMKVFFSGELPKEENIERLREIKNEAQQAIERYSSVFETMKIYKGMVARPEDSVYWNMTVEYGIRYMKMLSEWCDCCIKILEDVEK”, which “soluble on expression in E. coli” value is on record?
**A.** soluble

**Q.** Which “soluble on expression in E. coli” value does the source give for “MGSDKIHHHHHHMTHPALIDELQALADPGKVLTDAGSLETYGKDWTRQFTPAPLAIVFPKTTEQVQAIVRWANERLVALVPSGGRTGLSAAAVAANGEVVVSFDYMNQVLELNLTDRTAVCQPGVITRQLQALAEDNGLYYPVDFASSGSSQIGGNIGTNAGGIKVIRYGMTRNWVAGLKVVTGKGDLLELNKDLIKNATGYDLRQLFIGAEGTLGFVVEATMRLDRAPKNLTAMVLGTTDFNSIMPVLHAFHGKLDLTAFEFFSDKSFARVMARGDVPSPFDTPCPFYVLLEFEATTEDLADQALATFEHCVEQGWVLDGVMSQSEQQLRNLWKLREYISETISHFTPYKNDISVSVSKVPEFLAEIDAIVAEYYPDFEVLWYGHIGDGNLHLNILKPENLDKDEFFVKCARVNKWVFETVEKYNGSISAEHGVGMTKRDYLTYSRSPVEIEYMKALKAVFDPNGIMNPGKIFAV” here?
**A.** not soluble

**Q.** For “MGSDKIHHHHHHMSEAKMAESDGLRVLIDEPFYQPVANEVRVFLAAWDRRLPVMLKGPTGCGKTRFLEHMAWRLKRPLVTVACHEDLTSSDLIGRFLIEGNETVWQDGPLTRAVREGAICYLDEIVEARTDTTVVIHPLTDHRRHLPIEKLGIEITAHRDFMLVISYNPGYQTVLKDLKPSTKQRFVGMNFNYPPADVETCIVMKEAGVDEGRAKALVAAAGKARNLKEQGLQEVTSTRALIYAGALMVAGLDALEACVVAIIHPQTDDPELAEALLEIFRTFFPEQG”, which “soluble on expression in E. coli” value is on record?
**A.** not soluble

**Q.** Which “soluble on expression in E. coli” value does the source give for “MPQPEQLPGPNADIWNWQLQGLCRGMDSSMFFHPDGERGRARTQREQRAKEMCRRCPVIEACRSHALEVGEPYGVWGGLSESERDLLLKGTMGRTRGIRRTA” here?
**A.** not soluble

**Q.** For “MARIRVQFICQNCGTVHSRWAGKCNSCGEWNSLIEENANSGIGTGPKQNVHKGRVVALTSLSGNIEDAPRIHSGIAELDRVTGGGFVRGSVLLVGGDPGIGKSTLLTQTAAALSRKGHHVIYVSGEEAVAQICLRAQRLDAANTKVKLAAETNVEDILATLSEHKNLDMVIIDSIQTLWSDAADSAPGTVTQVRISAQAMIRFAKKTGAAVVLVGHVTKEGQIAGPRVVEHMVDAVLYFEGEGGHHYRILRTVKNRFGPTDEIGVFEMSDKGLREVINPSELFLGERNEKAPGAAVFAGMEGTRPILVEIQALVAPSSLGTPRRAVVGWDGNRLSMILAVLEAHCGVRFGQHDVYLNVAGGYRISEPAADLAVAAALVSSLTNIPLPTEYVYFGEISLSGAIRAVSHSAQRINEAQKLGFQGSVQPTTTTKMIKLPTFQQKTFSELSELIAALATGK”, which “soluble on expression in E. coli” value is on record?
**A.** not soluble

**Q.** With “MSLNYEGRVLVVDDVNDIRMLVGHMVQNSGLKVEYGRNGLEALDKVTDAINDGDPYDLVLIDIHMPVMNGSEAIKQIRSSGIHFPVVAMTAATMKGVRDQLISQGFTNVLEKPINHDALLKVLDAHLTAVSEPIQVETTDAHDNDASQQDESSERQHFLLVEDDVDAADITALLLESLGIDVHVAHSGQECMDVFNQRNDWSKVLMDLNLPDASGLNLAKEIHKTSPQLELVLLSGEEPDAQSMADADITKFILKPINKKVLSDLVEEGHHHHHH” as the sequence, how does the “soluble on expression in E. coli” value read?
**A.** soluble

**Q.** For “MSTCATVSRDLDEPLAGTAATARTWLLLEQPGPWGTKALTSSHLDQALGRALEAAAEGTGVRIALIRRPGRHADCGTPAVRQVYAAHTVPGNVWLHGAMTSDPEQLLDLDFTALGMGDPHTFDRLLGGRPHTGDPLALVCTNGKRDRCCALLGRPLAAELAASGVTGAWEVTHLGGHRFAPTLLILPFGYAYGRAEAPHIKEVLQGVREGRVVVEGCRGRSAWERPGQAAELAVRTAAHEYAADALTVVATDGTAPRWEVTVAHADGRLWRVIVAQGASLPPRPESCGSALGSPARMDVVAVRELIPTEIDATSR”, which “soluble on expression in E. coli” value is on record?
**A.** not soluble

**Q.** Which “soluble on expression in E. coli” value does the source give for “TETSPDKWLIDGDTPLDEVERAIGYELPEGDYETISGLLFDHANALLKTGDVIEIPLDFEPEDYLNNTSPTQRILRITVLEVERNVPVKLALALLEDHPDNHPAPKENR” here?
**A.** soluble

**Q.** Which “soluble on expression in E. coli” value does the source give for “MSTHNTHINETMQRNGRNNMAEHRGGSGNFAEDREKASDAGRKGGQHSGGNFKNDPQRASEAGKKGGQQSGGNKSGKS” here?
**A.** not soluble

**Q.** With “MDDNQIINLFFQRNEDAINAVDEKYGSKLNALAANILQSREDGLECVNDMYMKAWNSIPPARPEYLFAFLATSARNIAIDMIRKNNAGKRQAKVVELTKELEECIGDGGLQTHLDKEDIGEMLSHFLETVDKNKRIIFLRRYWYSDSIKDISERMQMSESAVKVTLHRTRKELRKYLESEGLYL” as the sequence, how does the “soluble on expression in E. coli” value read?
**A.** not soluble

**Q.** Which “soluble on expression in E. coli” value does the source give for “MHHHHHHSSGVDLGTENLYFQSMPRIDADLKLDFKDVLLRPKRSSLKSRAEVDLERTFTFRNSKQTYSGIPIIVANMDTVGTFEMAAVMSQHSMFTAIHKHYSLDDWKLFATNHPECLQNVAVSSGSGQNDLEKMTSILEAVPQVKFICLDVANGYSEHFVEFVKLVRAKFPEHTIMAGNVVTGEMVEELILSGADIIKVGVGPGSVCTTRTKTGVGYPQLSAVIECADSAHGLKGHIISDGGCTCPGDVAKAFGAGADFVMLGGMFSGHTECAGEVIERNGRKLKLFYGMSSDTAMNKHAGGVAEYRASEGKTVEVPYKGDVENTILDILGGLRSTCTYVGAAKLKELSRRATFIRVTQQHNTVFS” here?
**A.** soluble

**Q.** For “MAHHHHHHMAYRVQKTTPAVVDNGTSSDGDEAQRASHKTAKTSSPSPIPKPARRKAPIADSDSDDESATRPAAKTTSPKFALKKAAVDSDSSDEDEPVPKNSSAGKRPAPRAEEAPAQRAARTESEGAARRTPHHLNEDGTFRRFQRIDPAKVTFDADALRDNRPGREHLVLRQNQEMMRTKGKGFNKLKQKNKGKFYGAGVDLSVRAYQFPDSDDE”, which “soluble on expression in E. coli” value is on record?
**A.** soluble

**Q.** With “MTDNTLTPQMLTGLSTDHLVVLSGAHRLQPQAAEAFQAMQQAAKVAGFDLQPASTFRDFGRQLAIWNGKFRGERPVLDQDSQPIDIFSLDTAARCEAILRWSALPGTSRHHWGSDLDIYDPSRLPTGEKLQLEPWEYDAGGYFYPLTQWLSAHMAEFGFYRPFATDNGGVAVEPWHLSYRPLAEQAEHLLTPKILLAAWQSQDVAGSEWLASHLPMIFSRFIYLK” as the sequence, how does the “soluble on expression in E. coli” value read?
**A.** not soluble

**Q.** For “MGSDKIHHHHHHMSYDEAFKTLLISSNAKLNLELNHLVIKQDENIAKLFLKDINIIVLESLQISISSALFNAFAKYKIILLTCDETHSINGVFTPFLGHFQSAKIAKEQMNVSAQKKAILWQKIIKNKILNQAFILKKHNKIEQSNELINLAKKVSLNDSKNIEAVAAALYFKTLFGTSFSRDELCFENSALNYGYAIIRACIIRAVCISGLLPWLGIKHDNIYNSFALCDDLIEVFRASVDDCVLKLKGESEFLSKDDKRALIGNLQSKINFDGQNYPLNRAINHYVANFKNALLYEDELKIVKFDD”, which “soluble on expression in E. coli” value is on record?
**A.** not soluble

**Q.** Which “soluble on expression in E. coli” value does the source give for “MAESSVTFTISTDGGGKINVIYDGSHKTNATDSSVNSESVTPCESLDTTKESEMLKAGLRRRAPSISTESSVTFSSISDFEDLNLRCSTPLVCDDDTNSNSDASFASCVSEVSEMSIKTTSSQETVTSASGLKESKPMEKMEEKREVRMKSYEQVNKERYGGWTEVVNWRAAKKPQSVAPSQSSTKKTLSNNGTTTDHGITSASRRTPNSTHVASKPQLNTRATSVQGSAPSSGSKSRIPSLANRQVYNNSPQLFHPFPPSRCNSSNGSYASTVTASPSVASYSPNPSQPPPPVAVAKLNMKMTITTDSNGKMSVHFSNSNSSESWSINGLLGNSDKINVSKMF” here?
**A.** not soluble

**Q.** With “MGSDKIHHHHHHEDSNPNALSPGIFWKSEGDIMKGLTSVYGALQPNASWAIPFERYIVIDGYRSDEITHRDDVTSWMNISSFNVEPTNSVVKTEWTNLYKGINYANQCLTNIPTVPGDSESLNALKKQSIAEARFLRAYFYYRLYVNFGERVPIYKEALAGTDEEFYPPQANPGELVSLIETELKEVQSDLPESYEESEKGRVTRYTAAALLGKFYMFRKELSKAEVEFKKIIDKEGSLFGLMENWADNFDGMHKNNKESLFEIQFTGDRSGGQYEYNLFTVHLGPMAGLDAYEEAYPTDWMCQTLLADKTIDGKSSDRALHTLIFDDPECRPFYYKNGKSFKDYHKEGEIFWHKYVTYTEGMSDYWDYSFFNVSVIRYADVLLLYAECLNDKGETTEAINIINKVRARVNVPALPLTMSKAEVLKHLQDKERPCELALEGSRWYDLVRWGIVEETLKAHNKPFVENYVDTKHQLFPIPHSEFLLNPDWEQNPNYSK” as the sequence, how does the “soluble on expression in E. coli” value read?
**A.** not soluble

**Q.** For “MTKVTREEVEHIANLARLQISPEETEEMANTLESILDFAKQNDSADTEGVEPTYHVLDLQNVLREDKAIKGIPQELALKNAKETEDGQFKVPTIMNEEDA”, which “soluble on expression in E. coli” value is on record?
**A.** soluble

**Q.** For “MPAFVERTPSAEVPRQVLRPHAEHAFAAELASLAGQDDRPRPARWRLSPWAVATYLLGGTLPDGTVITPKYVGPRRVVEVAVTTLATDRALLLLGVPGTAKTWVSEHLAAAVSGDSTLLVQGTAGTPEEAIRYGWNYARLLAHGPGRDALVPSPVMRAMTEGATVRVEELTRIPADVQDSLITLLSEKTLPIPELGEEVQAVRGFNLIATANDRDRGVNDLSSALRRRFNTVVLPLPESAEAEVDIVTRRVDQIGRSLDLPSAPDGTDEIRRVVTVFRELRDGLTSDGRTKVKSPSGPLSTAEAISVVTGGLALCAHFGDGVLRAGDLAAGVLGAVVRDPGTDRVVWQEYLETVVREREGWQDFYRACREVTALEHHHHHH”, which “soluble on expression in E. coli” value is on record?
**A.** not soluble
